Source: US20170355769A1 (AbbVie / Abbott, published 2017)
Where a chain is given by its changes, count along the chain named.

B1: huAb3v2.5-TX (antibody, human IgG1, kappa, L234A L235A, V domains shown)
VH: EVQLVQSGAEVKKPGSSVKVSCKASGYTFSSYWMHWVRQAPGQGLEWIGLIHPESGSTNYNEMFKNRATLTVDRSTSTAYMELSSLRSEDTAVYYCAGGGRLYFDYWGQGTTVTVSS
VL: DIVMTQSPLSLPVTPGEPASISCRSSQSLVHSNRDTYLRWYLQKPGQSPQLLIYKVSNRFSGVPDRFSGSGSGTDFTLKISRVEAEDVGVYYCSQSTHVPYTFGGGTKVEIKR
modifications: synthon TX on reduced interchain Cys
B2: huAb3v2.5-KZ (antibody, human IgG1, kappa, L234A L235A, V domains shown)
VH: B1 VH
VL: B1 VL
modifications: synthon KZ on reduced interchain Cys
B3: huAb3v2.5-LB (antibody, human IgG1, kappa, L234A L235A, V domains shown)
VH: B1 VH
VL: B1 VL
modifications: synthon LB on reduced interchain Cys
B4: huAb3v2.5-ZT (antibody, human IgG1, kappa, L234A L235A, V domains shown)
VH: B1 VH
VL: B1 VL
modifications: synthon ZT on reduced interchain Cys
B5: huAb3v2.6-YY (antibody, human IgG1, kappa, L234A L235A, V domains shown)
VH: B1 VH
VL: B1 VL with R34Q
modifications: synthon YY on reduced interchain Cys
B6: huAb3v2.5-XW (antibody, human IgG1, kappa, L234A L235A, V domains shown)
VH: B1 VH
VL: B1 VL
modifications: synthon XW on reduced interchain Cys
B7: huAb3v2.5-ZZ (antibody, human IgG1, kappa, L234A L235A, V domains shown)
VH: B1 VH
VL: B1 VL
modifications: synthon ZZ on reduced interchain Cys
B8: huAb3v2.6-AAD (antibody, human IgG1, kappa, L234A L235A, V domains shown)
VH: B1 VH
VL: B1 VL with R34Q
modifications: synthon AAD on reduced interchain Cys
B9: huAb3v2.5-WD (antibody, human IgG1, kappa, L234A L235A, V domains shown)
VH: B1 VH
VL: B1 VL
modifications: synthon WD on reduced interchain Cys
B10: huAb3v2.5-TV (antibody, human IgG1, kappa, L234A L235A, V domains shown)
VH: B1 VH
VL: B1 VL
modifications: synthon TV on reduced interchain Cys
B11: huAb3v2.6-AAA (antibody, human IgG1, kappa, L234A L235A, V domains shown)
VH: B1 VH
VL: B1 VL with R34Q
modifications: synthon AAA on reduced interchain Cys
B12: huAb3v2.5-SE (antibody, human IgG1, kappa, L234A L235A, V domains shown)
VH: B1 VH
VL: B1 VL
modifications: synthon SE on reduced interchain Cys
B13: huAb3v2.6-TV (antibody, human IgG1, kappa, L234A L235A, V domains shown)
VH: B1 VH
VL: B1 VL with R34Q
modifications: synthon TV on reduced interchain Cys
B14: huAb3v2.5-AAD (antibody, human IgG1, kappa, L234A L235A, V domains shown)
VH: B1 VH
VL: B1 VL
modifications: synthon AAD on reduced interchain Cys
B15: huAb3v2.6-TX (antibody, human IgG1, kappa, L234A L235A, V domains shown)
VH: B1 VH
VL: B1 VL with R34Q
modifications: synthon TX on reduced interchain Cys
B16: huAb3v2.5-YG (antibody, human IgG1, kappa, L234A L235A, V domains shown)
VH: B1 VH
VL: B1 VL
modifications: synthon YG on reduced interchain Cys
B17: huAb3v2.5-SR (antibody, human IgG1, kappa, L234A L235A, V domains shown)
VH: B1 VH
VL: B1 VL
modifications: synthon SR on reduced interchain Cys
B18: huAb3v2.6-WD (antibody, human IgG1, kappa, L234A L235A, V domains shown)
VH: B1 VH
VL: B1 VL with R34Q
modifications: synthon WD on reduced interchain Cys
B19: huAb3v2.5-AAA (antibody, human IgG1, kappa, L234A L235A, V domains shown)
VH: B1 VH
VL: B1 VL
modifications: synthon AAA on reduced interchain Cys
B20: huAb3v2.5-YY (antibody, human IgG1, kappa, L234A L235A, V domains shown)
VH: B1 VH
VL: B1 VL
modifications: synthon YY on reduced interchain Cys
B21: huAb13v1-XW (antibody, human IgG1, kappa, L234A L235A, V domains shown)
VH: EVQLQESGPGLVKPSETLSLTCAVTGYSITSGYSWHWIRQFPGNGLEWMGYIHSSGSTNYNPSLKSRISISRDTSKNQFFLKLSSVTAADTAVYYCAGYDDYFEYWGQGTTVTVSS
VL: DIQMTQSPSSLSASVGDRVTITCKASQNVGFNVAWYQQKPGKSPKALIYSASYRYSGVPSRFSGSGSGTDFTLTISSLQPEDFAEYFCQQYNWYPFTFGQGTKLEIKR
modifications: synthon XW on reduced interchain Cys
B22: huAb13v1-YG (antibody, human IgG1, kappa, L234A L235A, V domains shown)
VH: B21 VH
VL: B21 VL
modifications: synthon YG on reduced interchain Cys
B23: huAb13v1-SR (antibody, human IgG1, kappa, L234A L235A, V domains shown)
VH: B21 VH
VL: B21 VL
modifications: synthon SR on reduced interchain Cys
B24: huAb13v1-TV (antibody, human IgG1, kappa, L234A L235A, V domains shown)
VH: B21 VH
VL: B21 VL
modifications: synthon TV on reduced interchain Cys
B25: huAb13v1-SE (antibody, human IgG1, kappa, L234A L235A, V domains shown)
VH: B21 VH
VL: B21 VL
modifications: synthon SE on reduced interchain Cys
B26: huAb13v1-TX (antibody, human IgG1, kappa, L234A L235A, V domains shown)
VH: B21 VH
VL: B21 VL
modifications: synthon TX on reduced interchain Cys
B27: huAb13v1-KZ (antibody, human IgG1, kappa, L234A L235A, V domains shown)
VH: B21 VH
VL: B21 VL
modifications: synthon KZ on reduced interchain Cys

Biological target: T1, Human full length B7-H3 (human, UniProt Q5ZPR3 29-534)
T1 sequence: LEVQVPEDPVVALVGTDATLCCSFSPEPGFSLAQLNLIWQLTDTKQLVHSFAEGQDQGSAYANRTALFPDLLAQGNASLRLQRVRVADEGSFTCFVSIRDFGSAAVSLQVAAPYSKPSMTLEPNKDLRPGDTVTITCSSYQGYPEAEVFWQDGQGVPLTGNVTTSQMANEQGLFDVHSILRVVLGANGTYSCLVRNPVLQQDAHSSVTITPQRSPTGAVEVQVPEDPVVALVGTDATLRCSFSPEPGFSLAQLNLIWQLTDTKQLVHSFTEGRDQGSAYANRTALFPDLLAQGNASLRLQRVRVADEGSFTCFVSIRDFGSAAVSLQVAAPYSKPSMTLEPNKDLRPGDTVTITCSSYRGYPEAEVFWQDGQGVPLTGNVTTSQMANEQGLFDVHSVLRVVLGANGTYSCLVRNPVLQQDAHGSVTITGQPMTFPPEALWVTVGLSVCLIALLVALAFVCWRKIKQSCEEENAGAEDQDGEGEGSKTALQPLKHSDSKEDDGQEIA
Experiment: cell-based or functional assay

| Binder | EC50 nM H1650 (tumor cell cytotoxicity) [nM] |
| --- | --- |
| B1 | 0.62 |
| B2 | 0.87 |
| B3 | 2.59 |
| B4 | 0.95 |
| B5 | 0.72 |
| B6 | 2.18 |
| B7 | 1.1 |
| B8 | 0.85 |
| B9 | 0.83 |
| B10 | 0.53 |
| B11 | 1.24 |
| B12 | 0.85 |
| B13 | 0.52 |
| B14 | 0.49 |
| B15 | 0.47 |
| B16 | 0.71 |
| B17 | 0.59 |
| B18 | 0.79 |
| B19 | 0.85 |
| B20 | 0.71 |
| B21 | 0.86 |
| B22 | 0.33 |
| B23 | 0.59 |
| B24 | 0.43 |
| B25 | 0.63 |
| B26 | 0.22 |
| B27 | 179 |
